Test results reported in PMC6155276.

Target: Mycobacterium tuberculosis type-I fatty acid synthase (FAS-I) (Mycobacterium tuberculosis)
Experiment: […] (100 mM potassium phosphate pH 7.2, 150 mM KCl, 1 mM TCEP, 1 mM EDTA) […]

Mycobacterium tuberculosis type-I fatty acid synthase (FAS-I) (enzyme)
stoichiometry N: 6
